The source of these data is patent US20100113557A1 (ST MARIANNA UNIVERSITY SCHOOL OF MEDICINE, published 2010).

This experiment deals with T1, HERC2 (hect domain and RCC-like domain 2) (human, UniProt O95714 1-4834).
T1 construct: Endogenous protein of 293T or HeLa cells, found in BRCA1 immune precipitates from cell lysates; also called endogenous HERC2
The experiment can be described thus: immunoprecipitation with anti-BRCA1 antibody, synchronized HeLa cells. How it is done:
For the immunoprecipitation of a BRCA1 complex, the cell lysate was allowed to react with an anti-BRCA1 antibody at 4° C. for 1 hour. Thereafter, a precipitation reaction was carried out at 4° C. for 1 hour using Protein A and G sepharose (Invitrogen). The precipitate was washed with a 0.5% NP-40 buffer 3 times, and it was then re-suspended in an SDS sample buffer (50 mM Tris-HCl (pH6.8), 0.2% bromophenol blue, 10% glycerol, 2% SDS, and 100 mM DTT). The suspension was boiled for 3 minutes. As a peptide competition control, an equal amount of blocking peptide was added.

T1 sequence (O95714 other isoform, or with tags, fused parts or gaps limits assumed): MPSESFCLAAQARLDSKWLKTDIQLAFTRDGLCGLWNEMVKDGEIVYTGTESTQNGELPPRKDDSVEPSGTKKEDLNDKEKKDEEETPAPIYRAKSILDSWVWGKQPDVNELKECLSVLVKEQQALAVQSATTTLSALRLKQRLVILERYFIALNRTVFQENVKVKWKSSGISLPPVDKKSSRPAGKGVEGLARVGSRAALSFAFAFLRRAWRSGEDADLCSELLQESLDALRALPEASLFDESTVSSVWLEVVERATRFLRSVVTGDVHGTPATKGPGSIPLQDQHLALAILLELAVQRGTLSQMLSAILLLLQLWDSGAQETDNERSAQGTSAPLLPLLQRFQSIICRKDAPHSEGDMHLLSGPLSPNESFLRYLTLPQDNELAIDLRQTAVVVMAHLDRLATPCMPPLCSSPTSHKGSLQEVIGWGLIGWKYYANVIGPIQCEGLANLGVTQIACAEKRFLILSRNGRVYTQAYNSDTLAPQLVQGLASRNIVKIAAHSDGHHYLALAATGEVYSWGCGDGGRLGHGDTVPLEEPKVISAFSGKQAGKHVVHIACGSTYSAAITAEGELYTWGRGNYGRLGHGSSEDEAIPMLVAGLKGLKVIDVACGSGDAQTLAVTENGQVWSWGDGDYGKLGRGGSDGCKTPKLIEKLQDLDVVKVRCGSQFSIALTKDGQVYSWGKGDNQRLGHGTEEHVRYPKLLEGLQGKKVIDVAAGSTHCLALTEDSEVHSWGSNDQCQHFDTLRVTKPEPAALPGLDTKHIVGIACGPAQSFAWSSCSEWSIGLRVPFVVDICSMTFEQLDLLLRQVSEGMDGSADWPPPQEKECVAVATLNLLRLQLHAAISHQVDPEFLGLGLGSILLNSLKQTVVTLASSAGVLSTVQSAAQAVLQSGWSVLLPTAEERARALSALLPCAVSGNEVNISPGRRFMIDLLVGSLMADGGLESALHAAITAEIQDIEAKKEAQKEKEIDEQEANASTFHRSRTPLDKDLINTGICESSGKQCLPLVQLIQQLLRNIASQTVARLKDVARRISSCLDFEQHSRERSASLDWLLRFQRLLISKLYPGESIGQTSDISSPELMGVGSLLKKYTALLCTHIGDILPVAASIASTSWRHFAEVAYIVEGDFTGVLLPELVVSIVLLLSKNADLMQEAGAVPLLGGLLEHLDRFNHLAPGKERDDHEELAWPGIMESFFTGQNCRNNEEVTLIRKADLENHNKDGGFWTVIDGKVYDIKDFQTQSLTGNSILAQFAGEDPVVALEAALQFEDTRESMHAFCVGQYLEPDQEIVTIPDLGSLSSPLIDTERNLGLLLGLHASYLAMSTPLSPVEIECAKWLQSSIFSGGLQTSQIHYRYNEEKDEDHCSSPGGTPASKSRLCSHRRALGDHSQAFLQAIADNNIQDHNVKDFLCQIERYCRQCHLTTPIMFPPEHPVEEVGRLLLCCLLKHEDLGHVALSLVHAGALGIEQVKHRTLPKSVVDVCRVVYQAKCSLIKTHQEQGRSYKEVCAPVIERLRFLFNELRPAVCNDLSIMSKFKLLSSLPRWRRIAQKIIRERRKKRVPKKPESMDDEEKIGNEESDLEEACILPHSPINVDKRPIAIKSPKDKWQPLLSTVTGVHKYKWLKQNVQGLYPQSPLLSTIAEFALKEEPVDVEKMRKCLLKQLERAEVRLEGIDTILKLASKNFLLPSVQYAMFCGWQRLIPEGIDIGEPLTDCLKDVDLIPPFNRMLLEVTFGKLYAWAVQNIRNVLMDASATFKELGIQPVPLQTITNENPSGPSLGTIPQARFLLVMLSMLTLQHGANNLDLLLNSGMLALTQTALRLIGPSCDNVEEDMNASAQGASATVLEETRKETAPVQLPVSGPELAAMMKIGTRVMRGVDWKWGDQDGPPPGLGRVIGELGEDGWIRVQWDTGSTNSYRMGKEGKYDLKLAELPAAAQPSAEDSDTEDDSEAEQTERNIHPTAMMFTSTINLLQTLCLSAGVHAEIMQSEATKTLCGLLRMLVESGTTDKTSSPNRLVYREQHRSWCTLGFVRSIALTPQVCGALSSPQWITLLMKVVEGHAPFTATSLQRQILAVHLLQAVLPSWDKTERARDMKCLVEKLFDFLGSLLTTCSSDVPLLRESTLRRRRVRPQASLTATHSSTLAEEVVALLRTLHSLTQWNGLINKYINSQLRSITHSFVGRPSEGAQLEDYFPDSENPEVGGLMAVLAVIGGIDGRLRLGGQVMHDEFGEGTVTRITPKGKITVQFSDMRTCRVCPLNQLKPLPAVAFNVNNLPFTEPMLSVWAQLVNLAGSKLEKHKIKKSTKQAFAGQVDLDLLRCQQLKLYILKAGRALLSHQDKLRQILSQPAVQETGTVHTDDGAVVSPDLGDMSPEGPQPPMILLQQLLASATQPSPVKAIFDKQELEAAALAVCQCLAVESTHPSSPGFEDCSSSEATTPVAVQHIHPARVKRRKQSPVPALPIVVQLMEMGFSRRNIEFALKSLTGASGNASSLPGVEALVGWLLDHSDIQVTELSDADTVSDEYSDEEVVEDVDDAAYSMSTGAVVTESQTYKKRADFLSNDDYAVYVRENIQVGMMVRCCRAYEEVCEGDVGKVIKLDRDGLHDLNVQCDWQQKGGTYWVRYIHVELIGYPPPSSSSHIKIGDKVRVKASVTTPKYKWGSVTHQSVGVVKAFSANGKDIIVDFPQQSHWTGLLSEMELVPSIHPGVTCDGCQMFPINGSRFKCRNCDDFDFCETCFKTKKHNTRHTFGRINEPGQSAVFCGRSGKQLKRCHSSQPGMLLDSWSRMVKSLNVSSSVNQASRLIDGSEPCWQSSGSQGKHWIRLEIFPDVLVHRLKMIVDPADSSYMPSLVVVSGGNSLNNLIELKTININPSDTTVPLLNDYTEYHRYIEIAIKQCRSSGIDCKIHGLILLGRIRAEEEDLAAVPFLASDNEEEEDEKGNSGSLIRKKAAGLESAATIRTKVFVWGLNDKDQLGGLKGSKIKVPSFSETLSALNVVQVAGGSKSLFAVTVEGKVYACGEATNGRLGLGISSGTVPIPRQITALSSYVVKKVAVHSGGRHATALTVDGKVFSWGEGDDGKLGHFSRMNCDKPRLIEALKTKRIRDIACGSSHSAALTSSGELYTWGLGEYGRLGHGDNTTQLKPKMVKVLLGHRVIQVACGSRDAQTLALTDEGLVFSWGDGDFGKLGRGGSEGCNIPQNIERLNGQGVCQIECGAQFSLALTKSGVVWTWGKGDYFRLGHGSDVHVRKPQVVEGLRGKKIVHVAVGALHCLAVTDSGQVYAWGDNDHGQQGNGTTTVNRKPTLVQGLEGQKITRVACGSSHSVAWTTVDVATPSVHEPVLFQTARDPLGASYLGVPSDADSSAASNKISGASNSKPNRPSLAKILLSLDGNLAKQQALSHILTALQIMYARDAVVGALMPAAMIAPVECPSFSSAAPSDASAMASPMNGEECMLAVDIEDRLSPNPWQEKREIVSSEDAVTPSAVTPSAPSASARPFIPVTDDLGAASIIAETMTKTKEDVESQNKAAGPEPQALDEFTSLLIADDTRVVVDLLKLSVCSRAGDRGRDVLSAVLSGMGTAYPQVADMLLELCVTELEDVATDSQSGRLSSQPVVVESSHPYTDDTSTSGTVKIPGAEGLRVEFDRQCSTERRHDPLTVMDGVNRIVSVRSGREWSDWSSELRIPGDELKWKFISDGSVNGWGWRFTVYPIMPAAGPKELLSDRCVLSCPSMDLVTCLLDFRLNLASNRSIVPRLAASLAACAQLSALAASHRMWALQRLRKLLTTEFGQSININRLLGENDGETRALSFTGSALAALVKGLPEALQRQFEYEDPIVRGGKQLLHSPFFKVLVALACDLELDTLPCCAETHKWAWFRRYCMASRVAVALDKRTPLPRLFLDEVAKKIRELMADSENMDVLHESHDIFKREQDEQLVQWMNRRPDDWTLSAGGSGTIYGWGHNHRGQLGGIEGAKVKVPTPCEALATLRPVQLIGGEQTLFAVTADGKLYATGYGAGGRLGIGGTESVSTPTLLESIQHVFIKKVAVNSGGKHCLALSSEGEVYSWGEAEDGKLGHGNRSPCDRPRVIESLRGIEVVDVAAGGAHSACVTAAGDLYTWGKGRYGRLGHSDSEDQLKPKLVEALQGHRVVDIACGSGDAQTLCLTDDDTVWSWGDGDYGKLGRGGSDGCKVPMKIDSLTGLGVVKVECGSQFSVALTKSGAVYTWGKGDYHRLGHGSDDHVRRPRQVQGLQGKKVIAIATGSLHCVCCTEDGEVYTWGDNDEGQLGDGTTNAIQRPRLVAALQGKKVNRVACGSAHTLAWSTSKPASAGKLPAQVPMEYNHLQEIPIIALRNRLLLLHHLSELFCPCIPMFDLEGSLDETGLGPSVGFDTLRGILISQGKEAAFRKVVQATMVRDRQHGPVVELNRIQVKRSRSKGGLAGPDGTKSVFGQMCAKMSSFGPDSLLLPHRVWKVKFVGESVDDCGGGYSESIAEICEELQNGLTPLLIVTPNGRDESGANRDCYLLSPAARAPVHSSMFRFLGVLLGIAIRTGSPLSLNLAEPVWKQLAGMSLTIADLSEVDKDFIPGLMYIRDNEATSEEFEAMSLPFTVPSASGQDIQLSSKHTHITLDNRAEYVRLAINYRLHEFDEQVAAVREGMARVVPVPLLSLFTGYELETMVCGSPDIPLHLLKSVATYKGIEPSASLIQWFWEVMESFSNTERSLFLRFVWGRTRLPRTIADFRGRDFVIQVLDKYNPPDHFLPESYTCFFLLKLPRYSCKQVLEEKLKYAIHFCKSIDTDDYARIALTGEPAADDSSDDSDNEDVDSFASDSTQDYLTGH

B1: BRCA1 (endogenous) (other, UniProt P38398 1-1863, looked up)
chain: MDLSALRVEEVQNVINAMQKILECPICLELIKEPVSTKCDHIFCKFCMLKLLNQKKGPSQCPLCKNDITKRSLQESTRFSQLVEELLKIICAFQLDTGLEYANSYNFAKKENNSPEHLKDEVSIIQSMGYRNRAKRLLQSEPENPSLQETSLSVQLSNLGTVRTLRTKQRIQPQKTSVYIELGSDSSEDTVNKATYCSVGDQELLQITPQGTRDEISLDSAKKAACEFSETDVTNTEHHQPSNNDLNTTEKRAAERHPEKYQGSSVSNLHVEPCGTNTHASSLQHENSSLLLTKDRMNVEKAEFCNKSKQPGLARSQHNRWAGSKETCNDRRTPSTEKKVDLNADPLCERKEWNKQKLPCSENPRDTEDVPWITLNSSIQKVNEWFSRSDELLGSDDSHDGESESNAKVADVLDVLNEVDEYSGSSEKIDLLASDPHEALICKSERVHSKSVESNIEDKIFGKTYRKKASLPNLSHVTENLIIGAFVTEPQIIQERPLTNKLKRKRRPTSGLHPEDFIKKADLAVQKTPEMINQGTNQTEQNGQVMNITNSGHENKTKGDSIQNEKNPNPIESLEKESAFKTKAEPISSSISNMELELNIHNSKAPKKNRLRRKSSTRHIHALELVVSRNLSPPNCTELQIDSCSSSEEIKKKKYNQMPVRHSRNLQLMEGKEPATGAKKSNKPNEQTSKRHDSDTFPELKLTNAPGSFTKCSNTSELKEFVNPSLPREEKEEKLETVKVSNNAEDPKDLMLSGERVLQTERSVESSSISLVPGTDYGTQESISLLEVSTLGKAKTEPNKCVSQCAAFENPKGLIHGCSKDNRNDTEGFKYPLGHEVNHSRETSIEMEESELDAQYLQNTFKVSKRQSFAPFSNPGNAEEECATFSAHSGSLKKQSPKVTFECEQKEENQGKNESNIKPVQTVNITAGFPVVGQKDKPVDNAKCSIKGGSRFCLSSQFRGNETGLITPNKHGLLQNPYRIPPLFPIKSFVKTKCKKNLLEENFEEHSMSPEREMGNENIPSTVSTISRNNIRENVFKEASSSNINEVGSSTNEVGSSINEIGSSDENIQAELGRNRGPKLNAMLRLGVLQPEVYKQSLPGSNCKHPEIKKQEYEEVVQTVNTDFSPYLISDNLEQPMGSSHASQVCSETPDDLLDDGEIKEDTSFAENDIKESSAVFSKSVQKGELSRSPSPFTHTHLAQGYRRGAKKLESSEENLSSEDEELPCFQHLLFGKVNNIPSQSTRHSTVATECLSKNTEENLLSLKNSLNDCSNQVILAKASQEHHLSEETKCSASLFSSQCSELEDLTANTNTQDPFLIGSSKQMRHQSESQGVGLSDKELVSDDEERGTGLEENNQEEQSMDSNLGEAASGCESETSVSEDCSGLSSQSDILTTQQRDTMQHNLIKLQQEMAELEAVLEQHGSQPSNSYPSIISDSSALEDLRNPEQSTSEKAVLTSQKSSEYPISQNPEGLSADKFEVSADSSTSKNKEPGVERSSPSKCPSLDDRWYMHSCSGSLQNRNYPSQEELIKVVDVEEQQLEESGPHDLTETSYLPRQDLEGTPYLESGISLFSDDPESDPSEDRAPESARVGNIPSSTSALKVPQLKVAESAQSPAAAHTTDTAGYNAMEESVSREKPELTASTERVNKRMSMVVSGLTPEEFMLVYKFARKHHITLTNLITEETTHVVMKTDAEFVCERTLKYFLGIAGGKWVVSYFWVTQSIKERKMLNEHDFEVRGDVVNGRNHQGPKRARESQDRKIFRGLEICCYGPFTNMPTDQLEWMVQLCGASVVKELSSFTLGTGVHPIVVVQPDAWTEDNGFHAIGQMCEAPVVTREWVLDSVALYQCQELDTYLIPQIPHSHY
notes: Endogenous protein, precipitated from cell lysate with an anti-BRCA1 antibody; also called endogenous BRCA1
As for B1, the binding result is on record as “binds”.
